Measured values published in publication PMC2871135, “Engineering Cofactor Preference of Ketone Reducing Biocatalysts: A Mutagenesis Study on a γ-Diketone Reductase from the Yeast Saccharomyces cerevisiae Serving as an Example” (International Journal of Molecular Sciences, 2010).

Assays:
[1] = substrate: NC(=O)C1=CN([C@@H]2O[C@H](COP(=O)(O)OP(=O)(O)OC[C@H]3O[C@@H](n4cnc5c(N)ncnc54)[C@H](OP(=O)(O)O)[C@@H]3O)[C@@H](O)[C@H]2O)C=CC1; assay: cells, lysate or membranes; format: biochemical, Saccharomyces cerevisiae; conditions: 10 mM 2,5-hexanedione as co-substrate, sodium phosphate pH 7.0, 30 °C, cofactor varied 0.1-4 mM, enzyme enriched from E. coli extract, not homogeneous
[2] = substrate: NC(=O)C1=CN([C@@H]2O[C@H](COP(=O)(O)OP(=O)(O)OC[C@H]3O[C@@H](n4cnc5c(N)ncnc54)[C@H](O)[C@@H]3O)[C@@H](O)[C@H]2O)C=CC1; assay: cells, lysate or membranes; format: biochemical, Saccharomyces cerevisiae; conditions: 10 mM 2,5-hexanedione as co-substrate, sodium phosphate pH 7.0, 30 °C, cofactor varied 0.1-4 mM, enzyme enriched from E. coli extract, not homogeneous

Protein	Km [1]	Vmax [1]	Km [2]	Vmax [2]
Gre2p (Saccharomyces cerevisiae S288C) (protein, GRE2 subcloned from p423-GPD-YOL151w into pRSET B, expressed in E. coli BL21(DE3) pLysS) MSVFVSGANGFIAQHIVDLLLKEDYKVIGSARSQEKAENLTEAFGNNPKFSMEVVPDISKLDAFDHVFQKHGKDIKIVLHTASPFCFDITDSERDLLIPAVNGVKGILHSIKKYAADSVERVVLTSSYAAVFDMAKENDKSLTFNEESWNPATWESCQSDPVNAYCGSKKFAEKAAWEFLEENRDSVKFELTAVNPVYVFGPQMFDKDVKKHLNTSCELVNSLMHLSPEDKIPELFGGYIDVRDVAKAHLVAFQKRETIGQRLIVSEARFTMQDVLDILNEDFPVLKGNIPVGKPGSGATHNTLGATLDNKKSKKLLGFKFRNLKETIDDTASQILKFEGRI	38 µM	0.288 µmol/min/mg	1450 µM	0.081 µmol/min/mg
Gre2p (Saccharomyces cerevisiae S288C; N9E) (protein, GRE2 subcloned from p423-GPD-YOL151w into pRSET B, expressed in E. coli BL21(DE3) pLysS) MSVFVSGAEGFIAQHIVDLLLKEDYKVIGSARSQEKAENLTEAFGNNPKFSMEVVPDISKLDAFDHVFQKHGKDIKIVLHTASPFCFDITDSERDLLIPAVNGVKGILHSIKKYAADSVERVVLTSSYAAVFDMAKENDKSLTFNEESWNPATWESCQSDPVNAYCGSKKFAEKAAWEFLEENRDSVKFELTAVNPVYVFGPQMFDKDVKKHLNTSCELVNSLMHLSPEDKIPELFGGYIDVRDVAKAHLVAFQKRETIGQRLIVSEARFTMQDVLDILNEDFPVLKGNIPVGKPGSGATHNTLGATLDNKKSKKLLGFKFRNLKETIDDTASQILKFEGRI	1520 µM	0.272 µmol/min/mg	960 µM	0.147 µmol/min/mg
